From patent US20030219813A1 (Takeda / Millennium, published 2003)

B3: human SCUBE2 (SEQ ID NO:4) (other)
chain: RAAGPQEDVDECAQGLDDCHADALCQNTPTSYKCSCKPGYQGEGRQCEDIDECGNELNGGCVHDCLNIPGNYRCTCFDGFMLAHDGHNCLDVDECLENNGGCQHTCVNVMGSYECCCKEGFFLSDNQHTCIHRSEEGLSCMNKDHGCSHICKEAPRGSVACECRPGFELAKNQRDCILTCNHGNGGCQHSCDDTADGPECSCHPQYKMHTDGRSCLEREDTVLEVTESNTTSVVDGDKRVKRRLLMETCAVNNGGCDRTCKDTSTGVHCSCPVGFTLQLDGKTCKDIDECQTRNGGCDHFCKNIVGSFDCGCKKGFKLLTDEKSCQDVDECSLDRTCDHSCINHPGTFACACNRGYTLYGFTHCGDVTTIRTSVTFKLNEGKCSLKNAELFPEGLRPALPEKHSSVKESFRYVNLTCSSGKQVPGAPGRPSTPKEMFITVEFELETNQKEVTASCDLSCIVKRTEKRLRKAIRTLRKAVHREQFHLQLSGMNLDVAKKPPRTSERQAESCGVGQGHAENQCVSCRAGTYYDGARERCILCPNGTFQNEEGQMTCEPCPRPGNSGALKTPEAWNMSECGGLCQPGEYSADGFAPCQLCALGTFQPEAGRTSCFPCGGGLATKHQGATSFQDCETRVQCSPGHFYNTTTHRCIRCPVGTYQPEFGKNNCVSCPGNTTTDFDGSTNITQCKNRRCGGELGDFTGYIESPNYPGNYPANTECTWTINPPPKRRILIVVPEIFLPIEDDCGDYLVMRKTSSSNSVTTYETCQTYERPIAFTSRSKKLWIQFKSNEGNSARGFQVPYVTYDEDYQELIEDIVRDGRLYASENHQEILKDKKLIKALFDVLAHPQNYFKYTAQESREMFPRSFIRLLRSKVSRFLRPYK
notes: protein of 919 amino acids; also called recombinantly expressed SCUBE2

Tests used:
[1] = biological target: B3; experiment: overexpression; method not given
[2] = biological target: the molecule itself; experiment: overexpression; method not given
[3] = biological target: T1, SCUBE1.Myc (human SCUBE1 tagged with Myc at the C-terminus, endogenous signal peptide) (human, UniProt Q8IWY4 23-988); experiment: co-immunoprecipitation of detergent lysates, anti-Myc IP, anti-Flag M2 blot (FIG. 8b)
T1 construct: Expressed by transient transfection in HEK-293 / 293T cells; also called Myc-tagged human SCUBE1
T1 chain: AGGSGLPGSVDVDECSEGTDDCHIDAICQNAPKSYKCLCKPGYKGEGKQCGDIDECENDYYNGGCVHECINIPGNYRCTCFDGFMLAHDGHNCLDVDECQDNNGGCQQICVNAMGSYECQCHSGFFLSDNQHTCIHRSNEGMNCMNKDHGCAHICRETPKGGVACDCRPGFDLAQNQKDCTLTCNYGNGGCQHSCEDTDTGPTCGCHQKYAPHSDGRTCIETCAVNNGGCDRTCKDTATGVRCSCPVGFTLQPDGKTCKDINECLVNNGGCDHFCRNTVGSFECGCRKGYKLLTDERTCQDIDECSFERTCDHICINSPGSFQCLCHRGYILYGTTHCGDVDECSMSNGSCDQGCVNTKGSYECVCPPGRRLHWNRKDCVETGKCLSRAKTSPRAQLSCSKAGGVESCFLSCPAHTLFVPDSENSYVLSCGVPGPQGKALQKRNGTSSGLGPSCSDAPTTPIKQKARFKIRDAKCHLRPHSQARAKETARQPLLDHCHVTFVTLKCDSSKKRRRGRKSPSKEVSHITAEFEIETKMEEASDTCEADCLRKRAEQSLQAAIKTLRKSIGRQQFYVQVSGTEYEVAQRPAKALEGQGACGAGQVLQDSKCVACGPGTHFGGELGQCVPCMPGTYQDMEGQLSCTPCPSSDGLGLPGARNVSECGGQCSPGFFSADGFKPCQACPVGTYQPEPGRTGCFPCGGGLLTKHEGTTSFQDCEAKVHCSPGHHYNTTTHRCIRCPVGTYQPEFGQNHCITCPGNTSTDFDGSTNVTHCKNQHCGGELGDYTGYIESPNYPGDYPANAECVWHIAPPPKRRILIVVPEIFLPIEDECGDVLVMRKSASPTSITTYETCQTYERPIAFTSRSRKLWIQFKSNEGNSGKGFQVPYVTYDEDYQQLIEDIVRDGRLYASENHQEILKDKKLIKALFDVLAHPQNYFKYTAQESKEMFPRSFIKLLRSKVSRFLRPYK
Experimental: HEK-293 cells were transfected with expression plasmids encoding Flag-tagged full-length SCUBE1, SCUBE1-D1, SCUBE1-D2 and TLR2 (control) proteins, and, two days after transfection, cells were collected and homogenized. Samples of supernatant (S10) were centrifuged at 100,000×g for 30 min to give soluble fractions (S100) and pellets (P100 membrane fraction). Pellets were resuspended in original volumes of homogenization buffer with 0.1 M Na₂CO₃ (pH 12), sonicated briefly, and then incubated on ice for 30 min. Samples were centrifuged again at 100,000×g for 30 min. to give washed fractions S100′ and pellets P100′. Each fraction was subjected to SDS-PAGE and immunoblot analysis using anti-Flag M2 antibody. […] Upon disruption by sonication, however, they are released from the membrane and can be detected in the soluble membrane fraction. […] Flag-SCUBE1 and SCUBE1.Myc were singly or co-transfected in 293T cells. As a control, SCUBE1.Myc was expressed together with Flag-tagged IL-1β receptor (Flag.IL-1R1). Immunoprecipitation (IP) and Western blot (WB) were performed using antisera as indicated. The bands indicate the presence of protein complexes that can be precipitated by one antibody and detected by another. […] The spacer and CUB sequences are not required. […] In each case, a protein complex that could be precipitated with anti-Myc antibody was detected with anti-Flag M2 antibody.

B1: human SCUBE1 (SEQ ID NO:2) (other)
chain: AGGSGLPGSVDVDECSEGTDDCHIDAICQNAPKSYKCLCKPGYKGEGKQCGDIDECENDYYNGGCVHECINIPGNYRCTCFDGFMLAHDGHNCLDVDECQDNNGGCQQICVNAMGSYECQCHSGFFLSDNQHTCIHRSNEGMNCMNKDHGCAHICRETPKGGVACDCRPGFDLAQNQKDCTLTCNYGNGGCQHSCEDTDTGPTCGCHQKYAPHSDGRTCIETCAVNNGGCDRTCKDTATGVRCSCPVGFTLQPDGKTCKDINECLVNNGGCDHFCRNTVGSFECGCRKGYKLLTDERTCQDIDECSFERTCDHICINSPGSFQCLCHRGYILYGTTHCGDVDECSMSNGSCDQGCVNTKGSYECVCPPGRRLHWNRKDCVETGKCLSRAKTSPRAQLSCSKAGGVESCFLSCPAHTLFVPDSENSYVLSCGVPGPQGKALQKRNGTSSGLGPSCSDAPTTPIKQKARFKIRDAKCHLRPHSQARAKETARQPLLDHCHVTFVTLKCDSSKKRRRGRKSPSKEVSHITAEFEIETKMEEASDTCEADCLRKRAEQSLQAAIKTLRKSIGRQQFYVQVSGTEYEVAQRPAKALEGQGACGAGQVLQDSKCVACGPGTHFGGELGQCVPCMPGTYQDMEGQLSCTPCPSSDGLGLPGARNVSECGGQCSPGFFSADGFKPCQACPVGTYQPEPGRTGCFPCGGGLLTKHEGTTSFQDCEAKVHCSPGHHYNTTTHRCIRCPVGTYQPEFGQNHCITCPGNTSTDFDGSTNVTHCKNQHCGGELGDYTGYIESPNYPGDYPANAECVWHIAPPPKRRILIVVPEIFLPIEDECGDVLVMRKSASPTSITTYETCQTYERPIAFTSRSRKLWIQFKSNEGNSGKGFQVPYVTYDEDYQQLIEDIVRDGRLYASENHQEILKDKKLIKALFDVLAHPQNYFKYTAQESKEMFPRSFIKLLRSKVSRFLRPYK
modifications: glycosylated (N-linked, tunicamycin-sensitive)
notes: protein of 988 amino acids; also called Signal peptide-CUB-EGF-like domain-containing protein 1; recombinantly expressed SCUBE1
B1: binds [1]; binds [2].

B2: Flag.SCUBE1-D2 (Flag-tagged deletion construct 2 of human SCUBE1, amino acids 26-411 of SEQ ID NO:2; spacer, 10th EGF-like domain and CUB domain deleted) (other, not shown: small tags and cut ends)
chain: SGLPGSVDVDECSEGTDDCHIDAICQNAPKSYKCLCKPGYKGEGKQCGDIDECENDYYNGGCVHECINIPGNYRCTCFDGFMLAHDGHNCLDVDECQDNNGGCQQICVNAMGSYECQCHSGFFLSDNQHTCIHRSNEGMNCMNKDHGCAHICRETPKGGVACDCRPGFDLAQNQKDCTLTCNYGNGGCQHSCEDTDTGPTCGCHQKYAPHSDGRTCIETCAVNNGGCDRTCKDTATGVRCSCPVGFTLQPDGKTCKDINECLVNNGGCDHFCRNTVGSFECGCRKGYKLLTDERTCQDIDECSFERTCDHICINSPGSFQCLCHRGYILYGTTHCGDVDECSMSNGSCDQGCVNTKGSYECVCPPGRRLHWNRKDCVETGKCLSRA
B2: binds [3].

B3: binds [2].
